Experimental data from patent US20080124758A1, “Transmembrane domain removed recombinant human tyrosinase and method of producing the same” (Chung-Ang University Industry-Academy Cooperation Foundation, priority 2006, published 2008).
Read-outs that look alike come from different tables or passages of the source.

B1: Recombinant human tyrosinase of example 2 (pET-hTyrosinase(TM-)): Human tyrosinase with C-terminal transmembrane domain (55 amino acids) removed, SEQ ID NO: 2, expressed in E. coli with six … (protein)
chain: MHFPRACVSSKNLMEKECCPPWSGDRSPCGQLSGRGSCQNILLSNAPLGPQFPFTGVDDRESWPSVFYNRTCQCSGNFMGFNCGNCKFGFWGPNCTERRLLVRRNIFDLSAPEKDKFFAYLTLAKHTISSDYVIPIGTYGQMKNGSTPMFNDINIYDLFVWMHYYVSMDALLGGSEIWRDIDFAHEAPAFLPWHRLFLLRWEQEIQKLTGDENFTIPYWDWRDAEKCDICTDEYMGGQHPTNPNLLSPASFFSSWQIVCSRLEEYNSHQSLCNGTPEGPLRRNPGNHDKSRTPRLPSSADVEFCLSLTQYESGSMDKAANFSFRNTLEGFASPLTGIADASQSSMHNALHIYMNGTMSQVQGSANDPIFLLHHAFVDSIFEQWLRRHRPLQEVYPEANAPIGHNRESYMVPFIPLYRNGDFFISSKDLGYDYSYLQDSDPDSFQDYIKSYLEQASRI
modifications: C-terminal His6 tag; Human tyrosinase
B2: Recombinant human tyrosinase of comparative example 2 (pET-hTyr): Recombinant human tyrosinase produced in E. coli with pET-hTyr vector by the method of Korean Patent Application No. 2002-0073728 (protein, UniProt P14679 19-529, looked up)
Tyrosinase: HFPRACVSSKNLMEKECCPPWSGDRSPCGQLSGRGSCQNILLSNAPLGPQFPFTGVDDRESWPSVFYNRTCQCSGNFMGFNCGNCKFGFWGPNCTERRLLVRRNIFDLSAPEKDKFFAYLTLAKHTISSDYVIPIGTYGQMKNGSTPMFNDINIYDLFVWMHYYVSMDALLGGSEIWRDIDFAHEAPAFLPWHRLFLLRWEQEIQKLTGDENFTIPYWDWRDAEKCDICTDEYMGGQHPTNPNLLSPASFFSSWQIVCSRLEEYNSHQSLCNGTPEGPLRRNPGNHDKSRTPRLPSSADVEFCLSLTQYESGSMDKAANFSFRNTLEGFASPLTGIADASQSSMHNALHIYMNGTMSQVQGSANDPIFLLHHAFVDSIFEQWLRRHRPLQEVYPEANAPIGHNRESYMVPFIPLYRNGDFFISSKDLGYDYSYLQDSDPDSFQDYIKSYLEQASRIWSWLLGAAMVGAVLTALLAGLVSLLCRHKRKQLPEEKQPLLMEKEDYHSLYQSHL
B3: purified tyrosinase from human HeLa cell: Tyrosinase purified from human HeLa cell (Spritz et al., 1997) (protein, UniProt P14679 19-529, looked up)
Tyrosinase: B2 Tyrosinase
B4: Recombinant human tyrosinase of comparative example 1 (pHis-hTyr): Recombinant human tyrosinase produced in E. coli with pHis-hTyr vector by the method of Korean Patent Application No. 2001-0057379 (protein, UniProt P14679 19-529, looked up)
Tyrosinase: B2 Tyrosinase
modifications: His tag

Key:
[1] = Tyrosine hydroxylase activity of human tyrosinase (method of Husain et al., fluorescence of L-dopa formed); type: biochemical; conditions: for Increase of specific tyrosine hydroxylase activity of the His-bind purified enzyme compared to the crude extract: His-bind resin purified vs crude extract
Protocol: (§1) The measuring of the tyrosine hydroxylase activity was conducted according to a method of Husain et al. (Husain et al., J. Invest. Dermatol. 78: 243-252, 1982). Hydroxylation was conducted within an L-Dopa concentration range of 0-30 mM. A standard curve with respect to L-dopa was obtained. Using the standard curve, the amount of L-dopa produced after the reaction was determined. The reaction solution was prepared by adding 100 μM of L-tyrosine, L-dopa of each concentration, 4 mM of ascorbic acid and 100 μl of human tyrosinase into 50 mM Potassium phosphate buffer solution (pH 6.8) to obtain 2.5 ml of the solution. After that, the reaction was conducted at 37° C. for 3 hours. At this time, a reaction was conducted without adding the purified human tyrosinase as a control. The product was subjected to excitation at 360 nm and then was subjected to an emission at 490 nm by a method of Ram et al. (Ram et al., J. Biol. Chem. 267: 23707-23712, 1992). The intensity of the emission was measured. The measured value was converted into the concentration of L-dopa and the enzyme activity was measured. The specific activity with respect to the tyrosine hydroxylase activity of the purified human tyrosinase of the present invention was determined as the created mol number (mmol) of the L-dopa with respect to the amount of the enzyme (μg) per hour.

[2] = Dopa oxidase activity of human tyrosinase (method of Fling et al., dopachrome at 475 nm); type: biochemical
Protocol: (§2) The measurement of the dopa oxidase activity was conducted by the method of Fling et al. (Fling et al. J. Biol. Chem. 238: 2045-2053, 1963). The transformation of L-dopa which was the substrate of dopa oxidase into a brown product of dopachrome by tyrosinase was measured at 475 nm. […] 3 mM of L-dopa was added into 50 mM of tris-HCl buffer solution (pH 7.5) and incubated at 370 for 10 minutes. Then, 30 μl of human tyrosinase was added and the absorbance change was measured at 475 nm for 3 minutes. At this time, the unit of the activity of the enzyme was defined as follows. When 1 μmole of dopachrome was produced for 1 minute, this activity was defined as 1 unit (μmole/min). Specific activity was defined as 1 unit per 1 mg enzyme.

[3] = Influence of L-tyrosine concentration, Km by Lineweaver-Burk plot; type: biochemical
Protocol: as §1
(§3) The concentration of the substrate, L-tyrosine was given in a range of 0.01-1 mM, and the influence of the substrate concentration onto the recombinant human tyrosinase prepared by example 2 was evaluated. It is conducted by the same method of measuring the tyrosine hydroxylase activity explained in the experiment 1. The Km value of the recombinant human tyrosinase according to the present invention was calculated by the Lineweaver-Burk Plot (Lineweaver et al., J. Am, Chem. Soc., 56; 658-666, 1934).

[4] = Influence of L-dopa concentration, Km by Lineweaver-Burk plot; type: biochemical; conditions: L-dopa 0.05-5 mM
Protocol: as §2, with “Specific activity was defined as 1 unit per 1 mg enzyme.” left out
as §3, with “It is conducted by the same method of measuring the tyrosine hydroxylase activity explained in the experiment 1.” left out
The concentration of L-dopa, which is another substrate of the human tyrosinase was given in a range of 0.05-5 mM and the influence of the substrate concentration with respect to the recombinant human tyrosinase prepared in example 2 was examined. The dopa oxidase activity is measured by the same method of experiment 2. […]

[5] = read-out: Km value to L-tyrosine, cited from earlier work
[6] = literature value, Spritz et al. 1997; cited from earlier work
[7] = purification step: crude extract
[8] = purification step: His.bind resin chromatography
[9] = purification step: DEAE-Sephacel chromatography

Molecule | Increase of specific tyrosine hydroxylase activity of the His-bind purified enzyme compared to the crude extract [1] | Specific activity (tyrosine hydroxylase) [1, 7] | Purification degree (dopa oxidase specific activity relative to crude extract) [2, 8] | Specific activity (dopa oxidase) [2, 8] | Total activity (dopa oxidase) [2, 8] | Purification degree (dopa oxidase specific activity relative to crude extract) [2, 7] | Specific activity (dopa oxidase) [2, 7] | Total activity (dopa oxidase) [2, 7] | Purification degree (dopa oxidase specific activity relative to crude extract) [2, 9] | Specific activity (dopa oxidase) [2, 9] | Total activity (dopa oxidase) [2, 9] | other results
B1 | about 52 times | 2.1 ± 0.05 µmol/mg/h | 46 fold | 807 units/mg | 2977 units | 1.0 fold | 17.7 units/mg | 6200 units | – | – | – | Specific activity (tyrosine hydroxylase) ([1]; purification step: His.bind resin chromatography (finally purified), listed as Recombinant human tyrosinase of example 2 (pET-hTyrosinase(TM-))): 108.3 ± 2.10 µmol/mg/h; Specific activity (tyrosine hydroxylase) ([1]; purification step: His.bind resin chromatography (finally purified), listed as recombinant human tyrosinase): 108.3 ± 2.10 µmol/mg/h; Specific dopa oxidase activity, times higher than recombinant human tyrosinase of comparative example 1 ([2]; vs Korean Patent Application No. 2001-0057379 (comparative example 1)): about 31 times; Specific dopa oxidase activity, times higher than recombinant human tyrosinase of comparative example 2 ([2]; vs Korean Patent Application No. 2002-0073728 (comparative example 2)): about 1.2 times; Affinity onto the substrate L-tyrosine, times higher [3]: ≥ 100 times; Km ([3]; L-tyrosine 0.01-1 mM, Lineweaver-Burk plot): 1.32 µM; Km to L-tyrosine, times lower than Km of earlier tyrosinases ([3]; at the most, vs 0.17 mM, 2.34 μM and 0.2 mM): about 130 times; Km [4]: 340 µM
B2 | about 49 times | 1.8 ± 0.05 µmol/mg/h | 49 fold | 699 units/mg | 1922 units | 1.0 fold | 14.3 units/mg | 5700 units | 5 fold | 69.7 units/mg | 4460 units | Specific activity (tyrosine hydroxylase) [1, 9]: 11.0 ± 0.12 µmol/mg/h; Specific activity (tyrosine hydroxylase) ([1]; purification step: His.bind resin chromatography (finally purified)): 88.0 ± 1.50 µmol/mg/h; Km ([5]; value from previous filing): 2.34 µM
B3 | – | – | – | – | – | – | – | – | – | – | – | Specific activity with respect to tyrosine hydroxylase activity [6]: 22.3±0.01 μmol/1 g/h
B4 | – | – | 65.0 fold | 26.0 units/mg | 26 units | 1.0 fold | 0.4 units/mg | 136 units | 3.5 fold | 1.4 units/mg | 64 units | Km ([5]; value from previous filing or literature): 170 µM
